Ends that are not written are not given here.
Experiments:
[1] = biological target: CDK4/Cyclin D1 complex (UniProt P11802 1-303; P24385 1-295); assay: cell-based or functional assay
[2] = biological target: CDK2/Cyclin E complex (UniProt P24941 1-298; P24864 1-410); assay: cell-based or functional assay
For % Inhibition, cyclin D1/CDK4 kinase in this document: test concentration or dose not given here.
For % Inhibition, cyclin E/CDK2 kinase in this document: test concentration or dose not given here.

Chain of CDK4/Cyclin D1 complex (P11802 other isoform, or with tags, fused parts or gaps, chain 1 of 2): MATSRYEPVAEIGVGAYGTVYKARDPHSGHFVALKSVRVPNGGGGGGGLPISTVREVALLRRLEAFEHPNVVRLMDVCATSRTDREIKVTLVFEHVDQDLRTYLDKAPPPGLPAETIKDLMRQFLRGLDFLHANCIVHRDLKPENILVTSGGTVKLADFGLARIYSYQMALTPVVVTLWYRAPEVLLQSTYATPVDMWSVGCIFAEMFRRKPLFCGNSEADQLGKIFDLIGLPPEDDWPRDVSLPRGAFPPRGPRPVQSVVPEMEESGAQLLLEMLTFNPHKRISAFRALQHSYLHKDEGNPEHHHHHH
Chain of CDK4/Cyclin D1 complex (P24385 whole entry, chain 2 of 2): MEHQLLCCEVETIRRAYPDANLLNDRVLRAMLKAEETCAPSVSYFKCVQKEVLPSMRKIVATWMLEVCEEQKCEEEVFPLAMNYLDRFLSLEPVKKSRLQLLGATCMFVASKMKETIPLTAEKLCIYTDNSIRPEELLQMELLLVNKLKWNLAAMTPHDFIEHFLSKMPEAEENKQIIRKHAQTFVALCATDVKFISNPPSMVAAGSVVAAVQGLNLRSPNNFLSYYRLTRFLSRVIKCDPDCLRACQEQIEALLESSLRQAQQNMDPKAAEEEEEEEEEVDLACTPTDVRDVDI

Row | Binder | % Inhibition, cyclin D1/CDK4 kinase [1] [%] | % Inhibition, cyclin E/CDK2 kinase [2] [%] | IC50, cyclin E/CDK2 kinase, GST-pRb [2] [µM] | IC50, cyclin D1/CDK4 kinase, GST-pRb [1] [µM]
1 | FYHSKRRL-NH2 [FYHSKRRL-NH2] | 20 | 48 | > 200 | 
2 | AFYHSKRRLIFS-NH2 [AFYHSKRRLIFS-NH2] | 72 | 70 | 11 | 22
3 | FYHSKR-NH2 [FYHSKR-NH2] | 10 | 20 |  | 
4 | DFYHSKRRLAFS-NH2 [DFYHSKRRLAFS-NH2] | 61 | 80 | 14 | 53
5 | HSKRRLI-NH2 [HSKRRLI-NH2] | 10 | 35 |  | 
6 | FYHSKRR-NH2 [FYHSKRR-NH2] | 20 | 45 | > 200 | 
7 | DFYHSKRRAIFS-NH2 [DFYHSKRRAIFS-NH2] | 30 | 30 |  | 
8 | MTDFYHSKRRLI-NH2 [MTDFYHSKRRLI-NH2] | 11 | 35 |  | 
9 | FYHSKRRLIF-NH2 [p21 (150-159) FYHSKRRLIF-NH2] | 70 | 80 |  | 
10 | YHSKRRL-NH2 [YHSKRRL-NH2] | 10 | 30 | > 200 | 
11 | YHSKR-NH2 [YHSKR-NH2] | 10 | 25 |  | 
12 | YHSKRRLI-NH2 [YHSKRRLI-NH2] | 15 | 45 | > 200 | 
13 | TDFYHSKRRLIF-NH2 [p21 (148-159) TDFYHSKRRLIF-NH2] | 72 | 85 | 2.2 | 
14 | H-KRRLIF-NH2 [H-Lys-Arg-Arg-Leu-Ile-Phe-NH2] | 72 | 80 | 1.1 | > 200
15 | SKRRLIFSKRKP-NH2 [SKRRLIFSKRKP-NH2] | 40 | 70 | 46 | 
16 | YHSKRR-NH2 [YHSKRR-NH2] | 10 | 40 |  | 
17 | DFYASKRRLIFS-NH2 [DFYASKRRLIFS-NH2] | 60 | 80 | 5.1 | 73

Row | Binder | % Inhibition, cyclin D1/CDK4 kinase [1] [%] | % Inhibition, cyclin E/CDK2 kinase [2] [%] | IC50, cyclin E/CDK2 kinase, GST-pRb [2] [µM] | IC50, cyclin D1/CDK4 kinase, GST-pRb [1] [µM]
18 | DFYHSARRLIFS-NH2 [DFYHSARRLIFS-NH2] | 50 | 80 | 12.9 | 200
19 | FYHSKRRLI-NH2 [FYHSKRRLI-NH2] | 20 | 45 |  | 
20 | YHSKRRLIFSKR-NH2 [YHSKRRLIFSKR-NH2] | 60 | 80 | 17.6 | 45
21 | HSKRRL-NH2 [HSKRRL-NH2] |  | 45 | > 200 | 
22 | TSMTDFYHSKRR-NH2 [TSMTDFYHSKRR-NH2] | 30 | 35 |  | 
23 | DFYHSKARLIFS-NH2 [DFYHSKARLIFS-NH2] | 30 | 25 |  | 
24 | DFYHSKRALIFS-NH2 [DFYHSKRALIFS-NH2] | 30 | 70 | 30 | 
25 | YHSKRRLIF-NH2 [p21 (151-159) YHSKRRLIF-NH2] | 70 | 80 | 7 | 
26 | DFAHSKRRLIFS-NH2 [DFAHSKRRLIFS-NH2] | 56 | 80 | 5.3 | 121
27 | FYHSKRRLIFSK-NH2 [FYHSKRRLIFSK-NH2] | 70 | 70 | 26 | 41
28 | HSKRRLIFSKRK-NH2 [HSKRRLIFSKRK-NH2] | 80 | 90 | 8.7 | 34
29 | SKRRLIF-NH2 [SKRRLIF-NH2] | 72 | 80 | 7.7 | 54
30 | KRRLIFSK-NH2 [KRRLIFSK-NH2] | 20 | 60 | > 200 | 
31 | SMTDFYHSKRRL-NH2 [SMTDFYHSKRRL-NH2] | 18 | 40 |  | 
32 | DAYHSKRRLIFS-NH2 [DAYHSKRRLIFS-NH2] | 76 | 85 | 5.9 | 37
33 | DFYHSKR-NH2 [DFYHSKR-NH2] |  | 50 | 200 | 

Reference: US20040176301A1 (CYCLACEL, published 2004)
